Measurements from article PMC9335285 (Proceedings of the National Academy of Sciences of the …, 2022).

Target: the molecule itself
Experiment: cross-linking

B1: full-length Mycobacterium tuberculosis MmpL3 (natural protein)
chain: MFAWWGRTVYRYRFIVIGVMVALCLGGGVFGLSLGKHVTQSGFYDDGSQSVQASVLGDQVYGRDRSGHIVAIFQAPAGKTVDDPAWSKKVVDELNRFQQDHPDQVLGWAGYLRASQATGMATADKKYTFVSIPLKGDDDDTILNNYKAIAPDLQRLDGGTVKLAGLQPVAEALTGTIATDQRRMEVLALPLVAVVLFFVFGGVIAAGLPVMVGGLCIAGALGIMRFLAIFGPVHYFAQPVVSLIGLGIAIDYGLFIVSRFREEIAEGYDTETAVRRTVITAGRTVTFSAVLIVASAIGLLLFPQGFLKSLTYATIASVMLSAILSITVLPACLGILGKHVDALGVRTLFRVPFLANWKISAAYLNWLADRLQRTKTREEVEAGFWGKLVNRVMKRPVLFAAPIVIIMILLIIPVGKLSLGGISEKYLPPTNSVRQAQEEFDKLFPGYRTNPLTLVIQTSNHQPVTDAQIADIRSKAMAIGGFIEPDNDPANMWQERAYAVGASKDPSVRVLQNGLINPADASKKLTELRAITPPKGITVLVGGTPALELDSIHGLFAKMPLMVVILLTTTIVLMFLAFGSVVLPIKATLMSALTLGSTMGILTWIFVDGHFSKWLNFTPTPLTAPVIGLIIALVFGLSTDYEVFLVSRMVEARERGMSTQEAIRIGTAATGRIITAAALIVAVVAGAFVFSDLVMMKYLAFGLMAALLLDATVVRMFLVPSVMKLLGDDCWWAPRWARRLQTRIGLGEIHLPDERKRPVSNGRPARPPVTAGLVAARAAGDPRPPHDPTHPLAESPRPARSSPASSPELTPALEATAAPAAPSGASTTRMQIGSSTEPPTTRLAAAGRSVQSPASTPPPTPTPPSAPSAGQTRAMPLAANRSTDAAGDPAEPTAALPIIRSDGDDSEAATEQLNARGTSDKTRQRRRGGGALSAQDLLRREGRL
binding result: binds
